Data from PMC10786891, “Massively parallel profiling of RNA-targeting CRISPR-Cas13d”.
Residue numbers refer to the chain shown, from its start. Names and notes keep the numbering of the source.

T1: EsCas13d, nuclease-dead (Eubacterium siraeum, UniProt B0MS50, R295A;H300A;R849A;H854A)
T1 sequence: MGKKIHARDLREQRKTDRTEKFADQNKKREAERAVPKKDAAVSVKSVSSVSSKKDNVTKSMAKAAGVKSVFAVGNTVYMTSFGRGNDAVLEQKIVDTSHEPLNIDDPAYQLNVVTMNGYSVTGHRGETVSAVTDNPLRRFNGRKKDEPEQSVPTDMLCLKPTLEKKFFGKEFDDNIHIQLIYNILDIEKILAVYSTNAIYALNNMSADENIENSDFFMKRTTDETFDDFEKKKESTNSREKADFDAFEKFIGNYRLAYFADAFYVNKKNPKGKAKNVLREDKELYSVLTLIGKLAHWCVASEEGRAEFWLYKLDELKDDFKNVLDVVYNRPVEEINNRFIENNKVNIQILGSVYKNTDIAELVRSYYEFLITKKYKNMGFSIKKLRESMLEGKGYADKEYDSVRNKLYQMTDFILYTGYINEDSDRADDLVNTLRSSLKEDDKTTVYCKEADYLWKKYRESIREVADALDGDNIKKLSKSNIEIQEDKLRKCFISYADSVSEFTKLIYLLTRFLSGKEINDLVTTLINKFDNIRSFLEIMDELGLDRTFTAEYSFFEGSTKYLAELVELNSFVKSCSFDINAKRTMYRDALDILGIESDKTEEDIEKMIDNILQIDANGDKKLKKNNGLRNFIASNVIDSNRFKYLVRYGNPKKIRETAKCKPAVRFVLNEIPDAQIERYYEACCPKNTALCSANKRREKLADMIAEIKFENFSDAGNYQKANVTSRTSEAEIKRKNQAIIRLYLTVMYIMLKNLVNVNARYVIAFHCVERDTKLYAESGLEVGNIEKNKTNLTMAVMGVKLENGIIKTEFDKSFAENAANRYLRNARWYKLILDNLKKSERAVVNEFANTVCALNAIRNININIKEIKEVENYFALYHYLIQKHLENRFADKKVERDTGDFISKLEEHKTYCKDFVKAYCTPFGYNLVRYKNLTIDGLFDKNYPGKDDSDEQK

B1: target 1 C2G,C21A (mixed)
RNA 1: CACCCGUGCAAAAAUGCAGGGGUCUAAAACUGAGCGGAUAACCUCUCUAUGG
RNA 2: GGGAAUGGAUCCACAUCUACGAAUUCGUACAAUAGAGAGGUUAUCCGCUGACCGAGAUCGGAAGAGCACACGU
B2: target 1 insU 3' of 20,insU 3' of 6 (mixed)
RNA 1: B1 RNA 1
RNA 2: GGGAAUGGAUCCACAUCUACGAAUUCGUACCAUUAGAGAGGUUAUCCUGCUCACCGAGAUCGGAAGAGCACACGU
B3: target 1 C4G,G5A (mixed)
RNA 1: B1 RNA 1
RNA 2: B1 RNA 2 with A31C, G47A, C48G, G50C
B4: target 1 insG 3' of 16,insC 3' of 5 (mixed)
RNA 1: B1 RNA 1
RNA 2: B2 RNA 2 with U34A, A35G, G36A, A37G, U48G, G49C
B5: target 1 G5U,G13U (mixed)
RNA 1: B1 RNA 1
RNA 2: B1 RNA 2 with A31C, G39U, G47U, G50C
B6: target 1 insU 3' of 20,insU 3' of 15 (mixed)
RNA 1: B1 RNA 1
RNA 2: B2 RNA 2 with A39U, G40A, U42G, A44U, U45A, C46U, U48C
B7: target 1 insU 3' of 15,insA 3' of 10 (mixed)
RNA 1: B1 RNA 1
RNA 2: B2 RNA 2 with U34A, A35G, G36A, A37G, G38U, U45A, C46U, U48C
B8: target 1 U11C,G12A (mixed)
RNA 1: B1 RNA 1
RNA 2: B1 RNA 2 with A31C, G40A, U41C, G50C
B9: target 1 insG 3' of 14,insA 3' of 11 (mixed)
RNA 1: B1 RNA 1
RNA 2: GGGAAUGGAUCCACAUCUACGAAUUCGUACCAUAGAGAGGGUAUAUCCGCUCACCGAGAUCGGAAGAGCACACGU
B10: target 1 insC 3' of 8,insC 3' of 5 (mixed)
RNA 1: B1 RNA 1
RNA 2: B9 RNA 2 with G41U, A45C, U46C, C48G, G49C
B11: target 1 C2U,C7G (mixed)
RNA 1: B1 RNA 1
RNA 2: B1 RNA 2 with A31C, C45G, G50U
B12: target 1 insC 3' of 19,insA 3' of 7 (mixed)
RNA 1: B1 RNA 1
RNA 2: B2 RNA 2 with U34C, C47A, U48C
B13: target 1 U11G,G12C (mixed)
RNA 1: B1 RNA 1
RNA 2: B1 RNA 2 with A31C, G40C, U41G, G50C
B14: target 1 insC 3' of 15,insC 3' of 11 (mixed)
RNA 1: B1 RNA 1
RNA 2: B9 RNA 2 with A38C, G39A, A43C
B15: target 1 insU 3' of 13,insU 3' of 4 (mixed)
RNA 1: B1 RNA 1
RNA 2: B9 RNA 2 with G40U, A43U, U44A, A45U, U46C, C48G, G49C, C50U
B16: target 1 insA 3' of 22,insG 3' of 1 (mixed)
RNA 1: B1 RNA 1
RNA 2: B2 RNA 2 with C31A, A32C, U33A, U48G, G49C, C50U, U51C, C52A, A53G
B17: target 1 insC 3' of 22,insG 3' of 3 (mixed)
RNA 1: B1 RNA 1
RNA 2: B2 RNA 2 with A32C, U33A, U48G, G49C, C50U, U51G
B18: target 1 insU 3' of 21,insU 3' of 5 (mixed)
RNA 1: B1 RNA 1
RNA 2: B2 RNA 2 with A32U, U33A, U48G, G49U
B19: target 1 insG 3' of 3,insU 3' of 2 (mixed)
RNA 1: B1 RNA 1
RNA 2: B9 RNA 2 with G41U, A45C, U46C, C47G, G49U, C50G, U51C, C52U
B20: target 1 insA 3' of 8,insG 3' of 8 (mixed)
RNA 1: B1 RNA 1
RNA 2: B9 RNA 2 with G41U, U46G
B21: target 1 A1G,G15C (mixed)
RNA 1: B1 RNA 1
RNA 2: B1 RNA 2 with A31C, G37C, G50C, A51G
B22: target 1 insA 3' of 22,insG 3' of 19 (mixed)
RNA 1: B1 RNA 1
RNA 2: B9 RNA 2 with C31A, A32C, U33A, A34U, G40A, U42G, A43U
B23: target 1 insC 3' of 20,insC 3' of 8 (mixed)
RNA 1: B1 RNA 1
RNA 2: B2 RNA 2 with U33C, U48C
B24: target 1 insG 3' of 14,insU 3' of 12 (mixed)
RNA 1: B1 RNA 1
RNA 2: B9 RNA 2 with A43U
B25: target 1 del8,del18 (mixed)
RNA 1: B1 RNA 1
RNA 2: GGGAAUGGAUCCACAUCUACGAAUUCGUACCAUGAGAGGUUACCGCUCACCGAGAUCGGAAGAGCACACGU
B26: target 1 insG 3' of 19,insU 3' of 12 (mixed)
RNA 1: B1 RNA 1
RNA 2: B2 RNA 2 with U34G, A44U, U45A, C46U, U48C
B27: target 1 insC 3' of 8,insU 3' of 6 (mixed)
RNA 1: B1 RNA 1
RNA 2: B9 RNA 2 with G41U, A45C, U46C, C48U
B28: target 1 insU 3' of 4,insC 3' of 1 (mixed)
RNA 1: B1 RNA 1
RNA 2: B9 RNA 2 with G41U, A45C, U46C, C47G, G49U, C50U, U51C, C52A, A53C
B29: target 1 insU 3' of 6,insA 3' of 6 (mixed)
RNA 1: B1 RNA 1
RNA 2: B9 RNA 2 with G41U, A45C, U46C, C47U, C48A
B30: target 1 insA 3' of 19,insA 3' of 19 (mixed)
RNA 1: B1 RNA 1
RNA 2: B9 RNA 2 with G35A, G40A, U42G, A43U
B31: target 1 insA 3' of 17,insC 3' of 17 (mixed)
RNA 1: B1 RNA 1
RNA 2: B9 RNA 2 with G37C, G40A, U42G, A43U
B32: target 1 insC 3' of 22,insA 3' of 2 (mixed)
RNA 1: B1 RNA 1
RNA 2: B2 RNA 2 with A32C, U33A, U48G, G49C, C50U, U51C, C52A
B33: target 1 A9U,G17C (mixed)
RNA 1: B1 RNA 1
RNA 2: B1 RNA 2 with A31C, G35C, A43U, G50C
B34: target 1 insA 3' of 11,insA 3' of 7 (mixed)
RNA 1: B1 RNA 1
RNA 2: B9 RNA 2 with G41U, U42A, A43U, U44A, A45U, U46C, C47A

The binders below were run against T1, EsCas13d, nuclease-dead (assay: crRNA (strand 1, pre-loaded); Mg2+; 40 mM Tris-HCl pH 7.5, 150 mM NaCl, 6 mM MgCl2, 1 mM DTT, 0.1% Tween-20, 0.2 mg/ml BSA; 25 C; 10 min per concentration, then washed). Settings: tags: His6-TwinStrep-SUMO cleaved; N-terminal SNAP kept (SNAP-Surface 488); label: 3' end held by stalled T7 RNA polymerase.

First: B1
Second: B2
The Kd of the first is 2.3-fold higher: 36 ± 8 nM for the first, 15.4 ± 0.6 nM for the second. The second binds more tightly here.

Compared with B3, B4 is 1.6-fold lower in Kd: 83 ± 17 nM for the first, 52 ± 5 nM for the second. The second binds more tightly here.

First: B5
Second: B6
The Kd of the first is 3.4-fold higher: 64 ± 8 nM for the first, 19.1 ± 1.6 nM for the second.

First: B7
Second: B8
The Kd of the first is 2.3-fold higher: 20.2 ± 1.1 nM for the first, 8.9 ± 0.4 nM for the second.

Going from B9 to B10, the Kd falls from 39.2 ± 2.6 nM to 14.6 ± 0.7 nM (2.7-fold). The second binds more tightly here.

Going from B11 to B12, the Kd rises from 8.54 ± 0.22 nM to 26.6 ± 2.4 nM (3.1-fold).

First: B13
Second: B14
The Kd of the first is 2.2-fold lower: 17 ± 1 nM for the first, 36.9 ± 3.4 nM for the second. The first binds more tightly here.

Going from B15 to B16, the Kd falls from 21 ± 2.6 nM to 11.2 ± 0.4 nM (1.9-fold).

First: B17
Second: B18
The Kd of the first is 3.1-fold lower: 11 ± 0.7 nM for the first, 34 ± 7 nM for the second. The first binds more tightly here.

First: B19
Second: B20
The Kd of the first is 3.3-fold lower: 10.1 ± 0.4 nM for the first, 33.1 ± 2.6 nM for the second. The first binds more tightly here.

B21 and B22 are within error of each other in Kd: 58 ± 9 nM for the first, 51 ± 7 nM for the second.

B23 and B24 are within error of each other in Kd: 15.2 ± 1.7 nM for the first, 16.4 ± 2.4 nM for the second.

Compared with B25, B26 is 1.6-fold lower in Kd: 75 ± 10 nM for the first, 48 ± 5 nM for the second. The second binds more tightly here.

B27 and B28 are within 1.5-fold of each other in Kd: 21.1 ± 1.5 nM for the first, 16.8 ± 1.8 nM for the second.

First: B29
Second: B30
The Kd of the first is 1.6-fold lower: 13.8 ± 1.3 nM for the first, 22.1 ± 2.4 nM for the second. The first binds more tightly here.

Compared with B31, B32 is 1.7-fold lower in Kd: 41.4 ± 2.9 nM for the first, 24 ± 4 nM for the second. The second binds more tightly here.

Going from B33 to B34, the Kd falls from ~90 nM to 14.3 ± 0.7 nM (6.3-fold).
